Measured values published in publication PMC10802454.

Target: AriA (Escherichia coli strain B185)
Assay: cryo-EM structure

Q: With AriA (natural protein) as the substance, how does the stoichiometry N read?
A: The stoichiometry N was 6.
